From paper PMC10998907

What was measured:
[1] = target: NiV-RBP ectodomain (NiV attachment glycoprotein ectodomain), homotetramer (Nipah virus) (UniProt Q9IH62); assay: negative-stain EM
[2] = target: NiV-RBP ectodomain homotetramer (Nipah virus); assay: cryo-EM structure

Substance	stoichiometry N [1]	stoichiometry N [2]
NiV-RBP ectodomain (NiV attachment glycoprotein ectodomain), homotetramer (from UniProt Q9IH62 1-602) (domain or fragment)	4	
NiV-RBP ectodomain homotetramer (domain or fragment)		4
